This passage reports stoichiometry N results from PMC3431827.

This assay concerns the target 2,4,6-TCP 4-monooxygenase (TcpA) from Cupriavidus necator JMP134 (Cupriavidus necator JMP134). Description: SEC-MALS; 100 μg TcpA on BioSep-SEC-S 2000 column, isocratic, 0.5 mL/min; multi-angle laser light scattering; tetramer.

Take “2,4,6-TCP 4-monooxygenase (TcpA) from Cupriavidus necator JMP134 (enzyme)”: the stoichiometry N was 4.
